Data from patent US20220411498A1 (JACOBIO PHARMACEUTICALS, published 2022).

T1: huCD39 recombinant protein (human, UniProt P49961 38-478)
T1 construct: the entry is the extracellular domain and ends in a histidine tag; also called soluble huCD39 protein; human CD39 extracellular domain recombinant protein
T1 sequence: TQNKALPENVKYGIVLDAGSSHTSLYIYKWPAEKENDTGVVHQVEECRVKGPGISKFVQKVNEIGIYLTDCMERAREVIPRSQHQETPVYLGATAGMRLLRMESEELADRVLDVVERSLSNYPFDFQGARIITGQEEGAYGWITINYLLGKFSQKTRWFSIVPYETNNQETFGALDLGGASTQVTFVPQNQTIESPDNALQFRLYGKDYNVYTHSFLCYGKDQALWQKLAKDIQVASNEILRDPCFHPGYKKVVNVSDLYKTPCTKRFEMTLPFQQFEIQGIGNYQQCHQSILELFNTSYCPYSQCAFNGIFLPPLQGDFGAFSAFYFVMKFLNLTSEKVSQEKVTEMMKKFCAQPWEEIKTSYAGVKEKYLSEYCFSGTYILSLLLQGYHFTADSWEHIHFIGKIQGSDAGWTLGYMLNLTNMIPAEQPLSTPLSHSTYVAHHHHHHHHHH

T2: huCD39 on the cell surface (293T/17-huCD39 cells) (human, UniProt P49961 1-510)
T2 construct: whole, on cells; also called natural CD39 protein on the cell surface; huCD39 antigen on the cell surface
T2 sequence (looked up): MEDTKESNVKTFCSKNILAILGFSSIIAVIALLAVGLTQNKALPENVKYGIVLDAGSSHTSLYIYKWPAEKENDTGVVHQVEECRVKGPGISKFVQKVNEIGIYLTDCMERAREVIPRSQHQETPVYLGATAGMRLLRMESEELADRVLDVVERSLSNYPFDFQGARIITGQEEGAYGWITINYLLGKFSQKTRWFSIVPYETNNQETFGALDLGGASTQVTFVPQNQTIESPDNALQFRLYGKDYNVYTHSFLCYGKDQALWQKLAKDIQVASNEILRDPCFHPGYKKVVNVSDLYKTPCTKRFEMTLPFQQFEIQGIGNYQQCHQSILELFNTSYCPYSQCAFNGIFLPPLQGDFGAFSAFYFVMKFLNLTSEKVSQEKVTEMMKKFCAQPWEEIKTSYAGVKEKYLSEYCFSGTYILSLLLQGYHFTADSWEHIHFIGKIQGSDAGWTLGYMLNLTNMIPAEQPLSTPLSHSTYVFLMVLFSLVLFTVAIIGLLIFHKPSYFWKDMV


How the values were obtained:
[1] = target: T1, huCD39 recombinant protein; assay: indirect ELISA, huCD39 recombinant protein coated at 1 ug/mL
Protocol: The next day, washed 5 times with PBS buffer and blocked with 200 μL/well of 2% skim milk powder for 1 h. A certain dose range of CD39 humanized antibody was added, and incubated for 1 h at room temperature. Then, washed 5 times with PBST washing buffer (PBS, 0.05% Tween 20), 100 μL HRP-labeled secondary antibody was added to each well, and incubated for 30 min at room temperature. The plates were washed 5 times again, and TMB (Life Technologies) was added for color development for 5 to 10 min. Finally, 1N HCl was added to terminate the reaction, and the OD value was measured at 450 nm. GraphPad Prism software was used to generate data plots and count the affinity data (FIG. 4). The EC₅₀ values of the binding activity of the three humanized antibodies were all at the level of 10⁻¹⁰ M.

[2] = target: T2, huCD39 on the cell surface …; assay: flow cytometry on 293T/17-huCD39 cells
Protocol: Flow cytometry assay: recombinant host cell line 293T/17-huCD39 cells expressing huCD39 were used to evaluate the binding ability of the humanized antibody to the natural CD39 protein on the cell surface. The recombinant cells were resuspended in PBS buffer, 2×10⁶ cells were added to a 96-well U-plate, and a certain gradient dilution range of the humanized antibody was incubated for 1h at 4° C. in a refrigerator or on ice. The mixture was centrifuged at 1500 rpm for 3 min at 4° C., and washed three times with PBS buffer. Then, incubated for 30 min at 4° C. in the refrigerator or on ice with diluted Alexa Fluor 488-labeled goat anti-human polyclonal antibody (pAb): Goat anti-Human IgG (H+L) Cross-Adsorbed Secondary Antibody, Alexa Fluor 488 (thermo), and finally the cells were washed three times with PBS as described above and analyzed in MACSQuant flow cytometry. Data plots were generated and affinity data were counted using GraphPad Prism software (FIG. 5). The results are shown in Table 5, and the EC₅₀ values of 293T/17-huCD39 humanized antibody were all at the level of 10⁻⁹M.

[3] = target: T2, huCD39 on the cell surface …; assay: cell-based or functional assay
[4] = target: T2, huCD39 on the cell surface …; assay: cell-based or functional assay; remark: listed apart in the source

Bottom [1] [OD450] | EC50 [1] [nM] | Top [1] [OD450] | Bottom [2] | EC50 [2] [nM] | Top [2] | EC50 of reversal of ATP-mediated proliferation inhibition of human CD4+ T cells (CFSE, flow cytometry) [3] [nM] | EC50 of reversal of ATP-mediated proliferation inhibition of human CD8+ T cells (CFSE, flow cytometry) [3] [nM] | Blocking of ATPase activity on cell surface (293T/17-huCD39, CellTiter Glo): Bottom [4] | Blocking of ATPase activity on cell surface (293T/17-huCD39, CellTiter Glo): EC50 [4] [nM] | Blocking of ATPase activity on cell surface (293T/17-huCD39, CellTiter Glo): Top [4] | Binder
0.109 | 0.433 | 1.03 | -1.33 | 3.31 | 280 | 5.08 | 7.08 | 39600 | 0.038 | 245000 | h201H3.1+h201L1.1dmut G2C (antibody, human IgG2, kappa, V domains shown, Humanized antibody, expressed in 293F cells) VH: QVQLVESGGGVVQPGRSLRLSCAASGFTFSDYGMHWVRQAPGKGLEWVAYISSGSSIMYYADTVKGRFTISRDNSKNTLYLQMNSLRAEDTAVYYCARDLYYDHVLDYWGQGTTVTVSS VL: DIQMTQSPSSLSASVGDRVTITCRASQEIRGYLIWLQQKPGKAIKRLIYAASTLESGVPSRFSGSRSGSDYTLTISSLQPEDFATYYCLQYTSYPRTFGQGTKVEIKR
0.085 | 0.709 | 0.991 | 8.18 | 3.1 | 266 | 0.646 | 1.35 | 38800 | 0.077 | 250000 | h201H3.1+h219L1.1 G2C (antibody, human IgG2, kappa, V domains shown, Humanized antibody, expressed in 293F cells) VH: QVQLVESGGGVVQPGRSLRLSCAASGFTFSDYGMHWVRQAPGKGLEWVAYISSGSSIMYYADTVKGRFTISRDNSKNTLYLQMNSLRAEDTAVYYCARDLYYDHVLDYWGQGTTVTVSS VL: DIQMTQSPSSLSASVGDRVTITCRASQEVSGYLNWLQQKPGKAIKRLIYAASTLESGVPSRFSGSRSGSDYTLTISSLQPEDFATYYCLQYASYPRTFGQGTKVEIKR
0.068 | 0.514 | 1.18 | -2.15 | 2.94 | 329 | 25.5 | 60.4 | 31300 | 0.026 | 152000 | M201 HuH1L1(D-E) G2C (antibody, human IgG2, kappa, V domains shown, Humanized antibody, expressed in 293F cells) VH: EVQLVESGGGLVQPGGSLRLSCAASGFTFSDYGMHWVRQAPGKGLEWVSYISSGSSIMYYADTVKGRFTISRDNAKNSLYLQMNSLRAEDTAVYYCARDLYYDHVLDYWGQGTLLTVSS VL: DIQMTQSPSSLSASVGDRVTITCRASQEIRGYLIWLQQKPGGAIKRLIYAASTLESGVPSRFSGSRSGTDFTLTISSLQPEDFATYYCLQYTSYPRTFGGGTKVEIKR
